According to doi:10.1101/2020.10.12.335539:

Tests used:
[1] = target: HCMV-IgG hyperimmunoglobulin preparation (Cytotect) (human); test: flow cytometry on cells
[2] = target: humanized anti-hCD20 IgG1 (Rituximab) (human); test: flow cytometry on cells

percent reduction of FcγRIII binding to immune complexes [2] [%]	Substance	percent reduction of FcγRIII binding to opsonized infected cells [1] [%]
–	HCMV gp68 on the surface of HCMV AD169/pBAC2-infected MRC-5 cells (from UniProt P16739 24-345) (natural protein)	60
60	CD4-tailed gp68 (gp68-CD4)	–
